# Reference: publication PMC13376213, “Systematic discovery of motif-based interactions of the auxiliary domains of USP family deubiquitinases” (Nature Communications, 2026)
# B1: TMEM223 (protein, UniProt A0PJW6 1-202, looked up)
# Transmembrane protein 223: MAAPWRRWPTGLLAVLRPLLTCRPLQGTTLQRDVLLFEHDRGRFFTILGLFCAGQGVFWASMAVAAVSRPPVPVQPLDAEVPNRGPFDLRSALWRYGLAVGCGAIGALVLGAGLLFSLRSVRSVVLRAGGQQVTLTTHAPFGLGAHFTVPLKQVSCMAHRGEVPAMLPLKVKGRRFYFLLDKTGHFPNTKLFDNTVGAYRSL
# B2: GTPBP10 (protein, UniProt A4D1E9 1-387, looked up)
# GTP-binding protein 10: MVHCSCVLFRKYGNFIDKLRLFTRGGSGGMGYPRLGGEGGKGGDVWVVAQNRMTLKQLKDRYPRKRFVAGVGANSKISALKGSKGKDCEIPVPVGISVTDENGKIIGELNKENDRILVAQGGLGGKLLTNFLPLKGQKRIIHLDLKLIADVGLVGFPNAGKSSLLSCVSHAKPAIADYAFTTLKPELGKIMYSDFKQISVADLPGLIEGAHMNKGMGHKFLKHIERTRQLLFVVDISGFQLSSHTQYRTAFETIILLTKELELYKEELQTKPALLAVNKMDLPDAQDKFHELMSQLQNPKDFLHLFEKNMIPERTVEFQHIIPISAVTGEGIEELKNCIRKSLDEQANQENDALHKKQLLNLWISDTMSSTEPPSKHAVTTSKMDII
# B3: BLTP3B (protein, UniProt A0JNW5 1-1464, looked up)
# Bridge-like lipid transfer …: MAGIIKKQILKHLSRFTKNLSPDKINLSTLKGEGELKNLELDEEVLQNMLDLPTWLAINKVFCNKASIRIPWTKLKTHPICLSLDKVIMEMSTCEEPRSPNGPSPIATASGQSEYGFAEKVVEGISVSVNSIVIRIGAKAFNASFELSQLRIYSVNAHWEHGDLRFTRIQDPQRGEVLTFKEINWQMIRIEADATQSSHLEIMCAPVRLITNQSKIRVTLKRRLKDCNVIATKLVLILDDLLWVLTDSQLKAMVQYAKSLSEAIEKSTEQRKSMAPEPTQSSTVVASAQQVKTTQTSNAPDVNDAIVKLFNDFDVKETSHHLVISHLDLHICDDIHAKEKESNRRITGGAMQLSFTQLTIDYYPYHKAGDSCNHWMYFSDATKTKNGWANELLHEFECNVEMLKQAVKDHNVGSPPKSPTHASPQHTQTEKDYPLKGTCRTPSVLSQQSKAKLMSSSVVVRLADFNIYQVSTAEQCRSSPKSMICCNKKSLYLPQEMSAVYIEFTEYYYPDGKDFPIPSPNLYSQLNALQFTVDERSILWLNQFLLDLKQSLNQFMAVYKLNDNSKSDEHVDVRVDGLMLKFVIPSEVKSECHQDQPRAISIQSSEMIATNTRHCPNCRHSDLEALFQDFKDCDFFSKTYTSFPKSCDNFNLLHPIFQRHAHEQDTKMHEIYKGNITPQLNKNTLKTSAATDVWAVYFSQFWIDYEGMKSGKGRPISFVDSFPLSIWICQPTRYAESQKEPQTCNQVSLNTSQSESSDLAGRLKRKKLLKEYYSTESEPLTNGGQKPSSSDTFFRFSPSSSEADIHLLVHVHKHVSMQINHYQYLLLLFLHESLILLSENLRKDVEAVTGSPASQTSICIGILLRSAELALLLHPVDQANTLKSPVSESVSPVVPDYLPTENGDFLSSKRKQISRDINRIRSVTVNHMSDNRSMSVDLSHIPLKDPLLFKSASDTNLQKGISFMDYLSDKHLGKISEDESSGLVYKSGSGEIGSETSDKKDSFYTDSSSILNYREDSNILSFDSDGNQNILSSTLTSKGNETIESIFKAEDLLPEAASLSENLDISKEETPPVRTLKSQSSLSGKPKERCPPNLAPLCVSYKNMKRSSSQMSLDTISLDSMILEEQLLESDGSDSHMFLEKGNKKNSTTNYRGTAESVNAGANLQNYGETSPDAISTNSEGAQENHDDLMSVVVFKITGVNGEIDIRGEDTEICLQVNQVTPDQLGNISLRHYLCNRPVGSDQKAVIHSKSSPEISLRFESGPGAVIHSLLAEKNGFLQCHIENFSTEFLTSSLMNIQHFLEDETVATVMPMKIQVSNTKINLKDDSPRSSTVSLEPAPVTVHIDHLVVERSDDGSFHIRDSHMLNTGNDLKENVKSDSVLLTSGKYDLKKQRSVTQATQTSPGVPWPSQSANFPEFSFDFTREQLMEENESLKQELAKAKMALAEAHLEKDALLHHIKKMTVE
# B4: BCLAF3 (protein, UniProt A2AJT9 1-711, looked up)
# BCLAF1 and THRAP3 family …: MARSRSRSPRWKHRSLSPVPRNAEHYKQRHSHGHYGCEYRKDPKRPVAWRMDSEKHGQSKPRIPSRGNIYYQSYEHRSPSPNIRNSLENVYMYKPHRGYSPGRGDSNRRAQYMPKYSEGIPYKEHERNSYPQKVQGGHSPDDHRVRGSGKGGKPPQRSIADSFRFEGKWHEDELRHQRIQEEKYSQSTRRGSEDFETRSSFQKRYPEDRDFRKYGHTSKRPKDVERYESREPARNPKWKPEHSLPPYQEDTDQWNLGPQTYRHAEREHPETSSATKVSYDYRHKRPKLLDGDQDFSDGRTQKYCKEEDRKYSFQKGPLNRELDCFNTGRGRETQDGQVKEPFKPSKKDSIACTYSNKNDVDLRSSNDKWKEKIKKEGDCRKESNSSSNQLDKSQKLPDVKPSPINLRKKSLTVKVDVKKTVDTFRVASSYSTERQMSHDLVAVGRKSENFHPVFEHLDSTQNTENKPTGEFAQEIITIIHQVKANYFPSPGITLHERFSTMQDIHKADVNEIPLNSDPEIHRRIDMSLAELQSKQAVIYESEQTLIKIIDPNDLRHDIERRRKERLQNEDEHIFHIASAAERDDQNSSFSKVKNVHTDGFQKPTHFIKSNFRKCIEKPYMNYTTQRKDIITHKPFEVEGNHRNTRVRPFKSNFRGGRCQPNYKSGLVQKSLYIQAKYQRLRFTGPRGFITHKFRERLMRKKKEYTDVATGI
# B5: IFT56 (protein, UniProt A0AVF1 1-554, looked up)
# Intraflagellar transport …: MMLSRAKPAVGRGVQHTDKRKKKGRKIPKLEELLSKRDFTGAITLLEFKRHVGEEEEDTNLWIGYCAFHLGDYKRALEEYENATKEENCNSEVWVNLACTYFFLGMYKQAEAAGFKASKSRLQNRLLFHLAHKFNDEKKLMSFHQNLQDVTEDQLSLASIHYMRSHYQEAIDIYKRILLDNREYLALNVYVALCYYKLDYYDVSQEVLAVYLQQIPDSTIALNLKACNHFRLYNGRAAEAELKSLMDNASSSFEFAKELIRHNLVVFRGGEGALQVLPPLVDVIPEARLNLVIYYLRQDDVQEAYNLIKDLEPTTPQEYILKGVVNAALGQEMGSRDHMKIAQQFFQLVGGSASECDTIPGRQCMASCFFLLKQFDDVLIYLNSFKSYFYNDDIFNFNYAQAKAATGNTSEGEEAFLLIQSEKMKNDYIYLSWLARCYIMNKKPRLAWELYLKMETSGESFSLLQLIANDCYKMGQFYYSAKAFDVLERLDPNPEYWEGKRGACVGIFQMIIAGREPKETLREVLHLLRSTGNTQVEYMIRIMKKWAKENRVSI
# Legend:
# [1] = tested on: FLAG-USP20; experiment: IP-MS of FLAG-USP20 and variants vs empty vector; assay type: cell-based, human
# Experimental: For transfection, 1x10^6 HEK293 cells were seeded in 10 cm dishes with DMEM, 10% FBS, 1% L-G (without antibiotic) medium, incubated at 37 °C, with 5 % CO2 for 24 h. Cells were transfected with a transfection mix containing 970 mL of Opti-MEM (Thermo Fisher Scientific), 20 μL of PEI stock (1 mg/mL) and 5 mg of the desired cDNA. For co-transfection, 2.5 μg of DNA of each plasmid was used. The mix was vortexed for 15 s and incubated at room temperature for 15–20 min. The transfection mix was added to the dish and gently mixed. Plates were incubated at 37 °C for 36–48 h before harvesting. For USP33 constructs, 5 μM Bortezomib (proteasome inhibitor) was added 4 hours before harvesting the cells.
# FLAG fusion proteins were immunoprecipitated from HEK293 cells transfected with plasmids encoding the protein of interest using the anti-FLAG M2 affinity gel from Sigma-Aldrich. […] The cell lysate was clarified by centrifugation at 17,000 x g, at 4 °C for 12 min, and the supernatant was transferred to a clean, pre-chilled low-binding Eppendorf tube. […] The IP samples were centrifuged at 6500 x g at 4 °C for 30 s. The supernatant containing the unbound proteins was transferred to a clean tube. The resin was washed three times with 500 μL of TBS, centrifuged at 6500 x g at 4 °C for 30 s. The bound FLAG fusion protein was eluted with 100 μL of 150 ng/μL 3X FLAG peptide (Sigma) in TBS and incubated in the cold room for 1 h or overnight. The tube was centrifuged at 6500 x g at 4 °C for 30 s; the eluted proteins were transferred to a clean tube. The eluted proteins were prepared for analysis by western blot or Mass Spectrometry.
# Immunoprecipitation (IP) was carried out as described above; four technical replicates of each IP condition were performed, and the empty vector was used as a negative control. The eluted protein was processed following the Strap-micro protocol (Protifi). The IP elution containing 1–100 μg protein was 1:1 mixed with 2X lysis buffer (10% SDS, 100 mM TEAB pH 8.5). […] Samples were vortexed, mixed with 165 μL of 100 mM TEAB in 90% methanol, and passed through an S-Trap micro column at 4000 g for 30 s to trap the proteins. The column was washed with 150 μL of 100 mM TEAB in 90% methanol (at 4,000 x g for 30 seconds) three times. The S-Trap column was centrifuged again and transferred to a clean 2 mL tube for digestion with 20 μL of digestion buffer (1 μg trypsin per 10 μg sample in 50 mM TEAB), at 37 °C overnight in a thermomixer without shaking. The digested peptides were eluted with 40 mL of 50 mM TEAB in water, 40 mL of 0.2 % formic acid in water, and 40 mL of 50 % acetonitrile in water, centrifuging at 4000 x g for 1 min each time. The three elutions were pooled in a low-binding tube, placed on dry ice until frozen, dried in a SpeedVac vacuum (Thermo Scientific), and proceeded with the LCMS analysis.
# Protein groups identified with a single peptide or quantified in fewer than three replicates in at least 1 condition were filtered out. Protein group intensities were median normalized and missing values were imputed using a Gaussian distribution centered on the median with a downshift of 1.8 and width of 0.3 (relative to the standard deviation).
# [2] = tested on: FLAG-USP33; experiment: IP-MS of FLAG-USP33 and variants vs empty vector; assay type: cell-based, human
# Experimental: For transfection, 1x10^6 HEK293 cells were seeded in 10 cm dishes with DMEM, 10% FBS, 1% L-G (without antibiotic) medium, incubated at 37 °C, with 5 % CO2 for 24 h. Cells were transfected with a transfection mix containing […] of Opti-MEM (Thermo Fisher Scientific), 20 μL of PEI stock (1 mg/mL) and […] of the desired cDNA. For co-transfection, 2.5 μg of DNA of each plasmid was used. The mix was vortexed for 15 s and incubated at room temperature for 15–20 min. The transfection mix was added to the dish and gently mixed. Plates were incubated at 37 °C for 36–48 h before harvesting. For USP33 constructs, 5 μM Bortezomib (proteasome inhibitor) was added 4 hours before harvesting the cells.
# FLAG fusion proteins were immunoprecipitated from HEK293 cells transfected with plasmids encoding the protein of interest using the anti-FLAG M2 affinity gel from Sigma-Aldrich. Cell pellets were lysed with 100–200 μL/per dish lysis buffer (Pierce RIPA buffer, 1X protease inhibitor (Roche), 50 unit/μL of Benzonase Nuclease) rotating at 4 °C for 30–45 min. […] The cell lysate was clarified by centrifugation at 17,000 x g, at 4 °C for 12 min, and the supernatant was transferred to a clean, pre-chilled low-binding Eppendorf tube. […] The IP samples were centrifuged at 6500 x g at 4 °C for 30 s. The supernatant containing the unbound proteins was transferred to a clean tube. The resin was washed three times with 500 μL of TBS, centrifuged at 6500 x g at 4 °C for 30 s. The bound FLAG fusion protein was eluted with 100 μL of 150 ng/μL 3X FLAG peptide (Sigma) in TBS and incubated in the cold room for 1 h or overnight. The tube was centrifuged at 6500 x g at 4 °C for 30 s; the eluted proteins were transferred to a clean tube. The eluted proteins were prepared for analysis by western blot or Mass Spectrometry.
# Immunoprecipitation (IP) was carried out as described above; four technical replicates of each IP condition were performed, and the empty vector was used as a negative control. The eluted protein was processed following the Strap-micro protocol (Protifi). The IP elution containing 1–100 μg protein was 1:1 mixed with 2X lysis buffer (10% SDS, 100 mM TEAB pH 8.5). […] Samples were vortexed, mixed with 165 μL of 100 mM TEAB in 90% methanol, and passed through an S-Trap micro column at 4000 g for 30 s to trap the proteins. The column was washed with 150 μL of 100 mM TEAB in 90% methanol (at 4,000 x g for 30 seconds) three times. The S-Trap column was centrifuged again and transferred to a clean 2 mL tube for digestion with 20 μL of digestion buffer (1 μg trypsin per 10 μg sample in 50 mM TEAB), at 37 °C overnight in a thermomixer without shaking. The digested peptides were eluted with […] of 50 mM TEAB in water, […] of 0.2 % formic acid in water, and […] of 50 % acetonitrile in water, centrifuging at 4000 x g for 1 min each time. The three elutions were pooled in a low-binding tube, placed on dry ice until frozen, dried in a SpeedVac vacuum (Thermo Scientific), and proceeded with the LCMS analysis.
# Eluted peptides were resuspended in water supplemented with 0.015% dodecyl maltoside and 0.1% formic acid and were injected on a Vanquish Neo UHPLC System operating in trap and elute mode coupled to an Orbitrap Astral Mass Spectrometer (Thermo Fisher Scientific). […] Eluted peptides were analyzed using data-independent acquisition mode on the mass spectrometer.
# Peptides were searched against the Uniprot Swissprot Human database (released on 02/01/2023) supplemented with the USP20 and USP33 mutants using DiaNN (v1.9.0)[62] operating in library-free mode. Data filtering and statistical analysis were carried out in Python (v3.9.0) using the packages pandas, numpy, sklearn, scipy, rpy2, Plotnine, and Plotly and R (v4.4.3) using the package limma.
# Protein groups identified with a single peptide or quantified in fewer than three replicates in at least 1 condition were filtered out. […]
# [3] = IP-MS, FLAG-USP20-ΔUBP vs EV, comparison bh_2 Sample_Limma_ImpMedInt_USP20_UBP_domain/EV
# [4] = IP-MS, FLAG-USP20 vs EV, comparison USP20_wt/EV, Limma
# [5] = Table S7b USP20 MS_and_motif, bait USP20
# [6] = IP-MS, FLAG-USP33-ΔDUSP2 vs EV, comparison bh_2 Sample_Limma_ImpMedInt_USP33_DUSP2_domain/EV
# [7] = IP-MS, FLAG-USP33-ΔUBP vs EV, comparison bh_2 Sample_Limma_ImpMedInt_USP33_UBP_domain/EV
# [8] = IP-MS, FLAG-USP33 UBP mutant vs EV, comparison USP33_E86K_D90R/EV, Limma
Molecule,"log2_FC [1, 3]","log2_FC [1, 4]","log2_FC [1, 5]","log2_FC [2, 6]","log2_FC [2, 7]","log2_FC [2, 8]","log2_FC ([2]; IP-MS, FLAG-USP33 vs EV, comparison USP33_wt/EV, Limma)","log2_FC ([2]; Table S7c USP33 MS_and_motif, bait USP33)"
B1,4.865,4.082,4.082,4.626,4.59,4.422,4.38,4.38
B2,,,,,2.53,,,
B3,,,,,,2.646,,
B4,4.725,4.955,4.955,,,4.934,,
B5,,,,3.226,2.888,,,
